Measured values reported in US20160130324A1 (SHIRE HUMAN GENETIC THERAPIES, published 2016).

T1: rhC1s (human, UniProt P09871 16-688)
T1 construct: Enzyme of the colorimetric peptide cleavage assay; Human is read from the printed label 'rhC1s'
T1 sequence (looked up): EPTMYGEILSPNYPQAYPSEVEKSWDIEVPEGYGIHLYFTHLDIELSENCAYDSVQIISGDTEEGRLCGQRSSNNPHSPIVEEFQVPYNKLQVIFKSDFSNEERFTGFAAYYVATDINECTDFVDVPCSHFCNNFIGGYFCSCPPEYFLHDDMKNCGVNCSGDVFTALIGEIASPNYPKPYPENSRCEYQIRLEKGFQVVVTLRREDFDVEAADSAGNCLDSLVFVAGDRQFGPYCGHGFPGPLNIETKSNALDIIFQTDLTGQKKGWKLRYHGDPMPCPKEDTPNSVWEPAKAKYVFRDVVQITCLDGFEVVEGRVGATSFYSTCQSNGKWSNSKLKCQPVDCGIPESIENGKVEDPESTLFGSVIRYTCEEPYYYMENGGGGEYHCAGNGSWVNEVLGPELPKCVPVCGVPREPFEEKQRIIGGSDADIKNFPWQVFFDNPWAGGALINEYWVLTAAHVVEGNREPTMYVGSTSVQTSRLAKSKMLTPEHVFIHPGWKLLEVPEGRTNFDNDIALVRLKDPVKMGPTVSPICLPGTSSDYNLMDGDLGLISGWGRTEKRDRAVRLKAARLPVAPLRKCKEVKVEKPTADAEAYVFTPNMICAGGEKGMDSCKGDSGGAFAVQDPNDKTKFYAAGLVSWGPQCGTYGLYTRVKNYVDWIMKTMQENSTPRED

T2: biotin-C1s
T2 construct: Used in the functional ELISA that measures the C1s/C1-INH complex
T2 sequence (P09871 16-688, species assumed, looked up): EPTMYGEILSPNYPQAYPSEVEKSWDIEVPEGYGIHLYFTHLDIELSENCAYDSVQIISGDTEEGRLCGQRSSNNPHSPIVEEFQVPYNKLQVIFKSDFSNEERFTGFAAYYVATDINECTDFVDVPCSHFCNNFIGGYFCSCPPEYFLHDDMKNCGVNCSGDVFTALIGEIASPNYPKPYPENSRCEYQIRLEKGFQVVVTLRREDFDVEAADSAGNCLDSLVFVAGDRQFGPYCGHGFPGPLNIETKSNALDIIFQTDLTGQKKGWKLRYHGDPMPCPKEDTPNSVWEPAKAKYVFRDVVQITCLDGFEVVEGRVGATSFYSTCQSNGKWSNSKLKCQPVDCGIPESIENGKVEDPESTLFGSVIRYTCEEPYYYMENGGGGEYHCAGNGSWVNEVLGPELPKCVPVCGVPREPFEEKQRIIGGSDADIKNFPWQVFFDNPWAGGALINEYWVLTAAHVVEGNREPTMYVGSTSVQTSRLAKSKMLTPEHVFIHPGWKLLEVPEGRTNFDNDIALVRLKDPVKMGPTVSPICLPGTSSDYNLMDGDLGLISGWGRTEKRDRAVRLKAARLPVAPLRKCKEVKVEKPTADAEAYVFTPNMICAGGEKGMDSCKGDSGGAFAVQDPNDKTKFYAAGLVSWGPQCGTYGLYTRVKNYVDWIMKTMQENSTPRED


Experiments:
rhC1s [1] = target: T1, rhC1s; assay: inhibition of rhC1s cleavage of a colorimetric peptide substrate, average OD; concentrations from mass spec sizes; C is the midpoint of the 4-parameter fit [panel A]
rhC1s [2] = target: T1, rhC1s; assay: inhibition of rhC1s cleavage of a colorimetric peptide substrate, average OD; concentrations from gel estimated sizes; C is the midpoint of the 4-parameter fit [panel B]
rhC1s [3] = target: T1, rhC1s; assay: inhibition of C1s cleavage of a colorimetric peptide substrate, mean OD value; C is the midpoint of the 4-parameter fit
biotin-C1s = target: T2, biotin-C1s; assay: functional ELISA of the C1s/C1-INH complex: diluted C1-INH with biotin-C1s, captured on a streptavidin plate, anti-C1-INH-HRP, OD450; C is the midpoint of the 4-parameter fit
Procedure: This method was used to test the effector dead Fc constructs made for PK studies FIG. 8. The ELISA protocol was as follows: [0334] 60 μL diluted C1-INH+12 μL biotin-C1s [0335] 30 min incubation at RT [0336] Transfer 50 μL of complexes to streptavidin coated plate [0337] 10 min incubation at RT, wash 5× [0338] Add 50 μL of anti-C1-INH-HRP [0339] 60 min incubation at RT, wash 5× [0340] Add 100 μL of TMB substrate [0341] 15 minute incubation at RT [0342] […] Read at OD450

IC50 (rhC1s [1]) | IC50 (rhC1s [2]) | IC50 (rhC1s [3]) | EC50 (biotin-C1s) | Binder
1.76 nM | 1.76 nM |  |  | R&D rhC1inh (other, human, UniProt P05155 23-500, looked up, commercial R&D Systems preparation; also called hSerpin G1 (R&D Systems)) single chain: NPNATSSSSQDPESLQDRGEGKVATTVISKMLFVEPILEVSSLPTTNSTTNSATKITANTTDEPTTQPTTEPTTQPTIQPTQPTTQLPTDSPTQPTTGSFCPGPVTLCSDLESHSTEAVLGDALVDFSLKLYHAFSAMKKVETNMAFSPFSIASLLTQVLLGAGENTKTNLESILSYPKDFTCVHQALKGFTTKGVTSVSQIFHSPDLAIRDTFVNASRTLYSSSPRVLSNNSDANLELINTWVAKNTNNKISRLLDSLPSDTRLVLLNAIYLSAKWKTTFDPKKTRMEPFHFKNSVIKVPMMNSKKYPVAHFIDQTLKAKVGQLQLSHNLSLVILVPQNLKHRLEDMEQALSPSVFKAIMEKLEMSKFQPTLLTLPRIKVTTSQDMLSIMEKLEFFDFSYDLNLCGLTEDPDLQVSAMQHQTVLELTETGVEAAAASAISVARTLLVFEVQQPFLFVLWDQQHKFPVFMGRVYDPRA
 |  | 1.14 nM |  | recombinant C1-INH (other, UniProt P05155 23-500, looked up) NPNATSSSSQDPESLQDRGEGKVATTVISKMLFVEPILEVSSLPTTNSTTNSATKITANTTDEPTTQPTTEPTTQPTIQPTQPTTQLPTDSPTQPTTGSFCPGPVTLCSDLESHSTEAVLGDALVDFSLKLYHAFSAMKKVETNMAFSPFSIASLLTQVLLGAGENTKTNLESILSYPKDFTCVHQALKGFTTKGVTSVSQIFHSPDLAIRDTFVNASRTLYSSSPRVLSNNSDANLELINTWVAKNTNNKISRLLDSLPSDTRLVLLNAIYLSAKWKTTFDPKKTRMEPFHFKNSVIKVPMMNSKKYPVAHFIDQTLKAKVGQLQLSHNLSLVILVPQNLKHRLEDMEQALSPSVFKAIMEKLEMSKFQPTLLTLPRIKVTTSQDMLSIMEKLEFFDFSYDLNLCGLTEDPDLQVSAMQHQTVLELTETGVEAAAASAISVARTLLVFEVQQPFLFVLWDQQHKFPVFMGRVYDPRA
2.01 nM | 2.01 nM | 1.83 nM | 4.58 nM | plasma-derived C1-INH (other, Purified from plasma and glycosylated) NPNATSSSSQDPESLQDRGEGKVATTVISKMLFVEPILEVSSLPTTNSTTNSATKITANTTDEPTTQPTTEPTTQPTIQPTQPTTQLPTDSPTQPTTGSFCPGPVTLCSDLESHSTEAVLGDALVDFSLKLYHAFSAMKKVETNMAFSPFSIASLLTQVLLGAGENTKTNLESILSYPKDFTCVHQALKGFTTKGVTSVSQIFHSPDLAIRDTFVNASRTLYSSSPRVLSNNSDANLELINTWVAKNTNNKISRLLDSLPSDTRLVLLNAIYLSAKWKTTFDPKKTRMEPFHFKNSVIKVPMMNSKKYPVAHFIDQTLKAKVGQLQLSHNLSLVILVPQNLKHRLEDMEQALSPSVFKAIMEKLEMSKFQPTLLTLPRIKVTTSQDMLSIMEKLEFFDFSYDLNLCGLTEDPDLQVSAMQHQTVLELTETGVEAAAASAISVARTLLVFEVQQPFLFVLWDQQHKFPVFMGRVYDPRA
